One assay addresses GST-SAP18 (UniProt O00422). The assay is described as follows: GST pull-down, bound protein quantitated from Western blot (FIG. 15c).
Another assay has as its target GST-INI1 (UniProt Q12824). The description is as above.
In assay [1] the target is GST-CTD (C-terminal domain of HIV-1 integrase, aa 201-288, GST fusion) (HIV-1 (Hx3B)) (UniProt P04585). Description: Alpha; GST-CTD 0.027 uM.
Assay [2] has the same target. Description: Alpha; GST-CTD 0.083 uM.

Some results are limits rather than exact numbers.

Chain of GST-SAP18 (O00422 whole entry): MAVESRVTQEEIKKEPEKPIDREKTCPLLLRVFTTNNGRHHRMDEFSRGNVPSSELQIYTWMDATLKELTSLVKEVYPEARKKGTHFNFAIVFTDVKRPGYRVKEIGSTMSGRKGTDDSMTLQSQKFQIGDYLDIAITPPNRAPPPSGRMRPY

With His6-IN(W235E) (enzyme), the % binding with GST-SAP18 was 20%; with GST-INI1, less than 5%.

By Kd is commonly meant the concentration at which binding is half-saturated. A low value points to a tighter complex. Turning to “His6-SUMO-INI1183-304 (from UniProt Q12824 183-304)”, the Kd was 3.5 nM in assay [1] and 3 nM in assay [2].

Values taken from patent US20240317826A1, “COMPOSITIONS AND METHODS FOR TREATING AND/OR I[…] AGENT FOR TREATING HIV-1 INFECTIONS” (priority 2021, published 2024).
